Laboratory results as given in patent US20220402983A1 (Janssen / Centocor, published 2022).
Bridges are numbered along the chain shown (N, C = ends). [ ]: non-standard residue; d: D form. Trp(7-Me) = Cc1cccc2c(C[C@H](N)C(=O)O)c[nH]c12; Ac6c(4,4-F2) = NC1(C(=O)O)CCC(F)(F)CC1; 2Nal = N[C@@H](Cc1ccc2ccccc2c1)C(=O)O; AEF = NCCOc1ccc(C[C@H](N)C(=O)O)cc1; αMeY = C[C@](N)(Cc1ccc(O)cc1)C(=O)O; αMeF = C[C@](N)(Cc1ccccc1)C(=O)O; αMeE = C[C@](N)(CCC(=O)O)C(=O)O; Cit = NC(=O)NCCC[C@H](N)C(=O)O; Pen = CC(C)(S)[C@H](N)C(=O)O; αMeK = C[C@](N)(CCCCN)C(=O)O; Ac6c = NC1(C(=O)O)CCCCC1; Thp = NC1(C(=O)O)CCOCC1; Abu = CC[C@H](N)C(=O)O; Aib = CC(C)(N)C(=O)O

T1: human IL-23R (interleukin-23 receptor) (human, UniProt Q5VWK5 24-629)
T1 sequence (looked up): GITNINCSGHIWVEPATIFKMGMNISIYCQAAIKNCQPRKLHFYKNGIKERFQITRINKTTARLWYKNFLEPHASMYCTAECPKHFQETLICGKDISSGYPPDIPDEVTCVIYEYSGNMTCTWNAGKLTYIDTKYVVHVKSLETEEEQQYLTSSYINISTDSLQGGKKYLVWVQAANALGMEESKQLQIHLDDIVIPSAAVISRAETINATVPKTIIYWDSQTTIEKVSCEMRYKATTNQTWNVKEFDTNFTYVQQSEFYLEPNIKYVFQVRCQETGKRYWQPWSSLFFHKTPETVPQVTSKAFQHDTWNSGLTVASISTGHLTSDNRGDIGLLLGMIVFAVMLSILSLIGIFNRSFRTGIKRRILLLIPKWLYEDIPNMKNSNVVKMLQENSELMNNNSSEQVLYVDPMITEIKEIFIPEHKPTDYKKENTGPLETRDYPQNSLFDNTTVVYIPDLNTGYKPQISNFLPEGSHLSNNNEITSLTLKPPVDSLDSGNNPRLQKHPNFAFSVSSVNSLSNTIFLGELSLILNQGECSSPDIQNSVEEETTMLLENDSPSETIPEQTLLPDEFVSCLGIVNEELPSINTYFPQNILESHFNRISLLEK


Molecular target: T1, human IL-23R (interleukin-23 receptor)
Test: cell-based or functional assay

pStat3 HTRF (nM), IC50, DB cells IL23R pSTAT3 cell assay [nM] | PBMC pSTAT3 IC50 (nM) | Binder
– | 1.3 | Ac-[dR][Pen]NT[Trp(7-Me)]K(Ac)[Pen][AEF][2Nal][Ac6c(4,4-F2)]EN[Thp]-NH2 (disulfide 2-7; SMILES CC(=O)NCCCC[C@@H]1NC(=O)[C@H](Cc2c[nH]c3c(C)cccc23)NC(=O)[C@H]([C@@H](C)O)NC(=O)[C@H](CC(N)=O)NC(=O)[C@@H](NC(=O)[C@@H](CCCNC(=N)N)NC(C)=O)C(C)(C)SSC(C)(C)[C@@H](C(=O)N[C@@H](Cc2ccc(OCCN)cc2)C(=O)N[C@@H](Cc2ccc3ccccc3c2)C(=O)NC2(C(=O)N[C@@H](CCC(=O)O)C(=O)N[C@@H](CC(N)=O)C(=O)NC3(C(N)=O)CCOCC3)CCC(F)(F)CC2)NC1=O) [Compound No. 303]
– | 24 | Ac-[dR][Abu]QTWQC[AEF][2Nal][Ac6c][αMeE]NF[Aib][αMeK]-NH2 (thioether 2-7) [Compound No. 301]
– | 7 | Ac-[Pen]NT[Trp(7-Me)][Cit][Pen][AEF][2Nal][αMeK]K(Ac)N[Aib]-NH2 (disulfide 1-6; SMILES CC(=O)NCCCC[C@H](NC(=O)[C@](C)(CCCCN)NC(=O)[C@H](Cc1ccc2ccccc2c1)NC(=O)[C@H](Cc1ccc(OCCN)cc1)NC(=O)[C@H]1NC(=O)[C@H](CCCNC(N)=O)NC(=O)[C@H](Cc2c[nH]c3c(C)cccc23)NC(=O)[C@H]([C@@H](C)O)NC(=O)[C@H](CC(N)=O)NC(=O)[C@@H](NC(C)=O)C(C)(C)SSC1(C)C)C(=O)N[C@@H](CC(N)=O)C(=O)NC(C)(C)C(N)=O) [Compound No. 302]

Continued, binder first:

Binder | pStat3 HTRF (nM), IC50, DB cells IL23R pSTAT3 cell assay [nM] | PBMC pSTAT3 IC50 (nM)
Ac-[dR][Abu]QT[Trp(7-Me)]K(Ac)C[AEF][2Nal][αMeK]K(Ac)N[αMeF]-NH2 (thioether 2-7) [Compound No. 201] | 12.7 | –
Ac-[Pen]NT[Trp(7-Me)][Cit][Pen][AEF][2Nal][αMeK]K(Ac)N[Aib][dY]-NH2 (disulfide 1-6; SMILES CC(=O)NCCCC[C@H](NC(=O)[C@](C)(CCCCN)NC(=O)[C@H](Cc1ccc2ccccc2c1)NC(=O)[C@H](Cc1ccc(OCCN)cc1)NC(=O)[C@H]1NC(=O)[C@H](CCCNC(N)=O)NC(=O)[C@H](Cc2c[nH]c3c(C)cccc23)NC(=O)[C@H]([C@@H](C)O)NC(=O)[C@H](CC(N)=O)NC(=O)[C@@H](NC(C)=O)C(C)(C)SSC1(C)C)C(=O)N[C@@H](CC(N)=O)C(=O)NC(C)(C)C(=O)N[C@H](Cc1ccc(O)cc1)C(N)=O) [Compound No. 202] | 0.637 | –
Ac-[Pen]NT[Trp(7-Me)]K(Ac)[Pen][AEF][2Nal][αMeK]K(Ac)N[αMeY]-NH2 (disulfide 1-6; SMILES CC(=O)NCCCC[C@@H]1NC(=O)[C@H](Cc2c[nH]c3c(C)cccc23)NC(=O)[C@H]([C@@H](C)O)NC(=O)[C@H](CC(N)=O)NC(=O)[C@@H](NC(C)=O)C(C)(C)SSC(C)(C)[C@@H](C(=O)N[C@@H](Cc2ccc(OCCN)cc2)C(=O)N[C@@H](Cc2ccc3ccccc3c2)C(=O)N[C@@](C)(CCCCN)C(=O)N[C@@H](CCCCNC(C)=O)C(=O)N[C@@H](CC(N)=O)C(=O)N[C@@](C)(Cc2ccc(O)cc2)C(N)=O)NC1=O) [Compound No. 151] | – | 5.7
Ac-[dR][Pen]NT[Trp(7-Me)]K(Ac)[Pen][AEF][2Nal][Thp][αMeE]N[αMeY]-NH2 (disulfide 2-7; SMILES CC(=O)NCCCC[C@@H]1NC(=O)[C@H](Cc2c[nH]c3c(C)cccc23)NC(=O)[C@H]([C@@H](C)O)NC(=O)[C@H](CC(N)=O)NC(=O)[C@@H](NC(=O)[C@@H](CCCNC(=N)N)NC(C)=O)C(C)(C)SSC(C)(C)[C@@H](C(=O)N[C@@H](Cc2ccc(OCCN)cc2)C(=O)N[C@@H](Cc2ccc3ccccc3c2)C(=O)NC2(C(=O)N[C@@](C)(CCC(=O)O)C(=O)N[C@@H](CC(N)=O)C(=O)N[C@@](C)(Cc3ccc(O)cc3)C(N)=O)CCOCC2)NC1=O) [Compound No. 150] | – | 4.7
